Measured values from patent US20030199040A1.

Columns and labels:
[1] = biological target: mIL-18 (purchased from PeproTech) (murine (printed as mIL-18)) (UniProt P70380); assay: cell-based or functional assay
[2] = biological target: mAcPL and mIL-1Rrp1 cotransfected on cells (COS7 or S49.1) (murine) (UniProt Q61098); assay: cell-based or functional assay
Chain of mAcPL and mIL-1Rrp1 cotransfected on cells (COS7 or S49.1) (murine) (Q61098 19-537, chain 1 of 2): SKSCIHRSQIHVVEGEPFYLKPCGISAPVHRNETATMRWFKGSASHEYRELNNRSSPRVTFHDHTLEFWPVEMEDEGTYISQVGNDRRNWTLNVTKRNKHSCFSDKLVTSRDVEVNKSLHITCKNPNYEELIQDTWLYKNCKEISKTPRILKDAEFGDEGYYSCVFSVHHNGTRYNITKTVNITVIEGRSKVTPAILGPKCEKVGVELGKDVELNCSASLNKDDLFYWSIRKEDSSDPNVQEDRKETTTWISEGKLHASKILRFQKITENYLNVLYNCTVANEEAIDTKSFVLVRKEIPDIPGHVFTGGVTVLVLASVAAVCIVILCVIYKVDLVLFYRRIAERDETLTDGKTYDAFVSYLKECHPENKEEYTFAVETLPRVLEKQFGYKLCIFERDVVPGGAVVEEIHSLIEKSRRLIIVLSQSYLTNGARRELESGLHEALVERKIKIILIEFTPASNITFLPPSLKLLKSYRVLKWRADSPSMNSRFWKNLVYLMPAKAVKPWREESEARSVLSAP
Chain of mAcPL and mIL-1Rrp1 cotransfected on cells (COS7 or S49.1) (murine) (chain, as listed by the source, chain 2 of 2): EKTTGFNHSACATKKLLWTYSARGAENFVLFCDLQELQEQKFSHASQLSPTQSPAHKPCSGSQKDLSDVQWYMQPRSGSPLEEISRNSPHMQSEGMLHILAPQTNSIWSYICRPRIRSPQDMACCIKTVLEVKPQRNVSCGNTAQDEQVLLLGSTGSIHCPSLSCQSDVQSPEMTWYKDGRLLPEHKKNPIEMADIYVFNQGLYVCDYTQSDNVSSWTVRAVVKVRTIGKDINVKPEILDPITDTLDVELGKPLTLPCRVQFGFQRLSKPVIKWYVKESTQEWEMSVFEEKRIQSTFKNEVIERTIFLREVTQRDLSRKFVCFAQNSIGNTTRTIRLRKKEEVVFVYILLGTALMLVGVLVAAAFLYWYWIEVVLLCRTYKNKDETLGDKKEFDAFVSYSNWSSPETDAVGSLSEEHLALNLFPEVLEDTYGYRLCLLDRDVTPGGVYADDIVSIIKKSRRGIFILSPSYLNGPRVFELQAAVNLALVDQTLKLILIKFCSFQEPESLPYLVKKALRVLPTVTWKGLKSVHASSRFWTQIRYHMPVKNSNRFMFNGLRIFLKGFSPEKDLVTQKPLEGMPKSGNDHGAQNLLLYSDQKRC

Chain of mIL-18 (purchased from PeproTech) (murine (printed as mIL-18)) (P70380 36-192 limits assumed): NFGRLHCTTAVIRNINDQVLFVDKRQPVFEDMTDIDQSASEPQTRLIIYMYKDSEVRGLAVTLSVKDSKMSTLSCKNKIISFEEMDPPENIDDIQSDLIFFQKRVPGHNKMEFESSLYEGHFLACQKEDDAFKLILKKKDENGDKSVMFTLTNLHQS

Row | inhibition of mIL-18 induced NFκB-luciferase activity in Cos7 cells transfected with mIL-1Rrp1 and mAcPL (10 ng/ml mIL-18 preincubated with the protein) [1] | luciferase activity (RLU) at 20 ug/ml and 50 ug/ml of the protein mixture; uninduced cells 3×10e3 RLU, mIL-18 without receptor-Fc 25×10e3 RLU [1] | increase in NFκB DNA binding activity (NFκB-Luc luciferase reporter), COS cells, 40 ng/mL IL-18 for 4 hours [2] | increase in NFκB DNA binding activity (NFκB-Luc luciferase reporter), S49.1 cells, 40 ng/mL IL-18 for 4 hours [2] | Substance
1 | 87% | 6000 RLU |  |  | heterogeneous mIL-1Rrp1-Fc+mAcPL-Fc protein mixture (homodimers of mIL-1Rrp1-Fc, homodimers of mAcPL-Fc, and heterodimeric mIL-1Rrp1-Fc/mAcPL-Fc molecules) (from UniProt Q61098 20-322; Q9Z2B1 20-356) (Fc fusion)
2 |  |  | 10 fold | 300 fold | mIL-18 (purchased from PeproTech) (from UniProt P70380 36-192) (ligand)
